Measured values as given in patent US20140289906A1, “Compositions Having Dicamba Decarboxylase Activity and Methods of Use” (priority 2013, published 2014).

B1: 58 (protein)
chain: MARVIALEEHYATTEFLRGPGTWLASRPGIVEPAGDLGDGRIAAMDQAGVDLAVLSLAAPGVEQLDPDDAVRLARDCNDQLAAAVRRYPDRLAGFATVPTSAPDRAADELERAVRGLGFPGAVINGHSRGRYLDDPFFEPVLARAAELQAPIYLHPTIPPAGVIESSYAGFAEPVTFALATVGWGWHINTATHALRMILGGVFDRHPSLQMIIGHMGEATSFMLPRFDATLKPELTGLNHPVSSYLRENFHYTFANFNDHATYANLVAQVGIERVAFSADYPFGSMVDARAFLDGLPLSDDERAAISHRNAEKLLGL
modifications: Mycobacterium colombiense
B2: 79 (protein)
chain: MATTTTPSTLIATLESHLTPTLAFTSPTTSPTQPALHLIPPTTLTKLRNLGPGRVKDMHMLGHSRQIISHIPVAAPPQICSRFNDAIHAATMTNTAKFSVLAVLPTDGMEAAKELARCVSKYRFVGGVIGLNRGLRINGEGWEELWGLAERLRIPIMFREMWPLAFEIVDYQHHLPYSALGPILTQLHTSHTSSPLPLVRLYLSSVFDHYPSLRLVLAHPGSLPSLVPRIESLINSIPATDKPKRSFLDVWQHNIYLTTADAQDMSSLRALLEQIPVDRVLYASNYPFEERGNELMNELRESEFLTNIEWERVAWVNAETLFNLKEAGTKEARQLTTIPSSRS
modifications: Pyrenophora teres
B3: 50 (protein, listed as Streptomyces sp.)
chain: MARIVTLEEHWTDPAVTAAGMPNLLDHVPGYAAAFDPDTGMPYPRHPELLEDLGAARIADMDRHGITTQVLSLVNTFLPADVAPRLTAAANDAMAAAVEAFPGRFAAFATLPTAVPGAAADELRRCVGELGFVGTMIMGRTDGEFLDQPRFDPILRAASDLSVPVYLHPAPPPVAVSEASYAGGLSPAVSAAFRLAAWGWHQETAVHLLHLVLAGVLDRYPGLQFVLGHWGEFIPFYLDRLDESMPRRMTGLDRTFREYFRDNVFITPSGMFSQAQLRYCADTVGTDRIIHSVDFPMLGNEGAVSFLTDSHLSREDQEKIAHGNADALLGLG
B4: 81 (protein, listed as Verticillium dahliae)
chain: MAASTKPKVVDIHTHMYPPSYIDILTSRTAIPVVRTFPQAADPRLILLDAEQQALDAALQDPTAKPPGRPLTSHYASLDQKIHFMDTHSIDISVVSLANPWLDFIEPKEAAATARSVNDEFEAMCASQPGRLFFFAALPLTAPLPALLEAVRHVAELEHCRGVILGTSGLGSGLDDPELVPVLEAVAAAALTVFLHPHYGLPNDVWGPRASAEYGHVLPLALGFPMETTIAVARMYLAGVFDRVPALRMLLAHSGGTLPFLAGRIESCILHDGQLVAEGKVGAARRTIWDVLREQVYLDAVIYSEIGLKAAIAASGGADRLMFGTDHPFFPPLGTDEQAKKESRINAGGSRPMITGNAMINGHGGLCNHITQSDYQDVVL
B5: 51 (protein, listed as Mycobacterium gilvum)
chain: MARVIAIEEHYAHPGLQPAEALANLRKHPQLARIQDKLEDLGAGRLADMDAAGIDMQVLSHTVPGAEALPAAQAVDVVRQTNDDLAEVIAAHPDRFAGFAALPMRDPQAAATELQRAVGTLGFCGAMINGLIEGRFLDHPDFTPLLSTAADLGVPLYLHPSFPPPQVAQIYFGGLPPVLADLLATAGWGWHAETALHVLRLISTGVFDRLPELRVIVGHMGEMIPFALARIDTVLSPMTELRQPVAQYFQTNVWFTTSGYTTFPPLQCALSTVGIDRLIFSVDYPYTDNASARALLDTAPISPVDREKLAHATVEALLRV
B6: 57 (protein)
chain: MAKLICVEEHVLDPAVGAATQSLVRAEAPYLPDWGSRVLDGRHVADRSRPHVIAPSESARKALEMGEPRLADMDAASIDMQVLSYGGFPQLLPAAQAIDLNRAANDKLALAAQAHPARFAGFATLPWQAPEAAARELERAVKQLGLKGALINGRPGDTFLDDARYAPILAAFDELKVPLYVHPGLPLPAVQAPYYGGFERELSARLAMFAWGWHNEAGIQVVRMLLAGVFDRHPRLQLISGHWGEMVPFFLQRLEDSIPQEASGLQRPIVQTYREHVYISPSGMFTLPHFQFIHALMGAQRILYSIDYPYQSLDGARAFIERLPISDTDKALIAHRNAERLLHL
modifications: Collimonas fungivorans
B7: 87 (protein, listed as Novosphingobium sp.)
chain: MASDIATAADLQTGGRQGYLRIATEEAFATRDQIDVYLRMVRDGTADRGMTSLWGFYAQSPSARATQIIERLLDLGEQRLADMDAAGIDKAVLALTSPGVQPLLDMEEARRIAGNANDRLAERCAAHPDRFIGMTAVAPQDPQWSAREILRGATQLGFKGVQINSHTQGRYLDEPFFDPIFRALGDVGQPLYIHPGTPPDSMIGPLLDAGLDGAIYGFGVETGMHLLRLITAGIFDRYPDLQIMVGHMGEALPYWLYRLDYMHQAGIRSQRYERMRPLKRTIAGYFRSNVLVTCSGMAWEPAIQFARQVMGEDRVMYAMDYPYQYEADEVRALDVMDLSPESKRKFFQTNAERWFDL
B8: 2 (protein, listed as Serratia sp.)
chain: MAKIICLEEHTLDKALVMASMPAALEQAPFLSDWGKTVTDGNLPDRSRPQIEKNDLINIKGADIGRGRLDDMDVAGITMQVLSVGGFPHLISAAEGVDLNRAANDRLADAVNAHPDRFAAFATLPWAQPDSAEKELERAVKELGFKGALLNGRPSTHFLDHPDYDGLLARFNALGVPLYLHPGLPVRSVQQAYYGGFSDEVTARLSMFGWGWHHEAGIHLLRLILSGAFDKYPNLQVISGHWGEMLPFWLQRLDDSLPQAATGLRRTIAQTFKEQVYVTPSGMLTLPHFQFIYALLGAERIIFSVDYPYQTLDGVKAFIQSLPVPEEAKEAIAFRNAERLLGLTS
B9: 55 (protein, listed as Serratia sp.)
chain: MAKIICLEEHTLDKALVMASMPAALEQAPFLSDWGKTVTDGNLPDRSRPQIEKNDLINIKGADIGRGRLDDMDVAGITMQVLSVGGFPHLISAAEGVDLNRAANDRLADAVNAHPDRFAAFATLPWAQPDSAEKELERAVKELGFKGALLNGRPSTHFLDHPDYDGLLARFNALGVPLYLHPGLPVRSVQQAYYGGFSDEVTARLSMFGWGWHHEAGIHLLRLILSGAFDKYPNLQVISGHWGEMLPFWLQRLDDSLPQAATGLRRTIAQTFKEQVYVTPSGMLTLPHFQFIYALLGAERIIFSVDYPYQTLDGVKAFIQSLPVPEEAKEAIAFRNAERLLGLTS
B10: 53 (protein, listed as Granulicella tundricola)
chain: MARTITLEEHFVTDSFLRATGAYDKPAPPWLAQLQPKLLDLGDGRIAAMDEAGIDLQVLSLAALGFDALDAATATPLVHDINDELAAAVRANPTRLAAFASLALKDPQSAARELERAIQKLGFRGVLLDGTTDGLFLDDPRFTPVFEAAVALNVPIYLHPAPPPESVFDTYFTGLPEGVGQMLSIAGWGWHAETALHTLRLITNGVFDRYPTLQLIIGHMGEMLPMALARTSKALSHAARLRQPVAAYFQSNIHLTTSGYFTQPPLRCALDVVGIDRLMFSIDYPFSANTLGRDYLTELEQTLTPEDLAKLIHRNAESLLNLS
B11: 56 (protein)
chain: MAKIICLEEHYLDSELGRACMPVALEQAPFLGDWGKTVADGHNPDRSRPQIEKNALINAKGADLGSRRLRDMDEAGITLQILSVGGFPQLAPEDEAVTLNTAANDRLAEAVRNHPDRFAAFATLPWAQPKDAENELVRAVEKLGFKGALLNGRPSSCFLDHPDYDSLLSRFNKLNVPLYLHPGLPLKSVQQAYFTGFSAEVNARLSMFGWGWHHEAGIHLLRLMLSGAFDKYPNMQVISGHWGEMLPFWLQRLDDSLPLAATGLSRTLTRTFQEHVYVTPSGMLTLPHFKFIYELMGAERILFSVDYPYQTLDGVKTFIDSLPVNKAEKEAIAFRNAERLLGITA
modifications: Enterobacter aerogenes
B12: 52 (protein, listed as Streptomyces sp.)
chain: MAKIIALEEHFSDPAVAKAGAARAQALSPGFAASYSPASGLPYSPSPEVLENLAEKRLADMDAGGITMQVLSGLSAQTVPADVAPALVAGSNDKAAAAVRAHPDRFAAFAALPTAAPEAAVAELDRSVNELGFVGTLIMGRTEGEFLDAPRFEPILARAAALKVPVFLHPGVPPREITDSNYAAGLPTGIGTRLQTAAWGWHQETAVHFLHLVHSGVLDRYPDLQFILGHWGETIPFYLDRVDEALPQRATGLDRSFHEYFRENVYLAPSGMWSQAQLRFCLETFPLERIVFAVDYPFIGNEGAVPFLEKAELPEADKRKIAHENAERLLGL
B13: 54 (protein, listed as Streptomyces sp.)
chain: MAKIIALEEHFSDPAVAKAGAARAQALSPGFAASYSPASGLPYSPSPEVLENLAEKRLADMDAGGITMQVLSGLGAQTVPADVAPALVAGSNDKAAAAVRAHPDRFAAFAALPTAAPEAAVAELDRSINELGFVGTLIMGRTEGEFLDAPRFEPILARAAALKVPVFLHPGVPPREITDSNYAAGLPTGIGTRLQTAAWGWHQETAVHFLHLVHSGVLDRYPGLQFILGHWGEMIPFYLDRVDEALPQRATGLDRSFHEYFRENVYLAPSGMWSQAQLRFCLETVPLERIVFAVDYPFIGNEGAVPFLEKAELPEADKRKIAHENAERLLGL

Test: 14C assay: 14CO2 capture from [14C]-carboxyl-labeled dicamba with IPTG-induced recombinant E. coli cells
Settings: for Dicamba Decarboxylase Activity: IPTG-induced recombinant E. coli cells, 14CO2 from [14C]-carboxyl-labeled dicamba; for decarboxylation activity of dicamba: among the 108 sequences tested, recombinant E. coli cell assay; for Enzymatic Detection level: dicamba decarboxylation activity

Molecule | Dicamba Decarboxylase Activity | decarboxylation activity of dicamba | Enzymatic Detection level
B1 | High | showed decarboxylation activity of dicamba | High
B2 | High | showed decarboxylation activity of dicamba | High
B3 | High | showed decarboxylation activity of dicamba | High
B4 | High | showed decarboxylation activity of dicamba | High
B5 | High | showed decarboxylation activity of dicamba | High
B6 | High | showed decarboxylation activity of dicamba | High
B7 | High | showed decarboxylation activity of dicamba | High
B8 | High | showed decarboxylation activity of dicamba | High
B9 | High | showed decarboxylation activity of dicamba | High
B10 | High | showed decarboxylation activity of dicamba | High
B11 | High | showed decarboxylation activity of dicamba | High
B12 | High | showed decarboxylation activity of dicamba | High
B13 | High | showed decarboxylation activity of dicamba | High
